Measured values reported in IntAct's records for PubMed 22493499.

B1: Signaling lymphocytic activation molecule (Mus musculus), Q9QUM4 (parent)
chain: MDPKGSLSWRILLFLSLAFELSYGTGGGVMDCPVILQKLGQDTWLPLTNEHQINKSVNKSVRILVTMATSPGSKSNKKIVSFDLSKGSYPDHLEDGYHFQSKNLSLKILGNRRESEGWYLVSVEENVSVQQFCKQLKLYEQVSPPEIKVLNKTQENENGTCSLLLACTVKKGDHVTYSWSDEAGTHLLSRANRSHLLHITLSNQHQDSIYNCTASNPVSSISRTFNLSSQACKQESSSESSPWMQYTLVPLGVVIIFILVFTAIIMMKRQGKSNHCQPPVEEKSLTIYAQVQKSGPQEKKLHDALTDQDPCTTIYVAATEPAPESVQEPNPTTVYASVTLPES

Variants of: B1
Conditions: with becn1_human BECN1, Q14457
Sequence of becn1_human BECN1, Q14457 (Q14457 whole entry): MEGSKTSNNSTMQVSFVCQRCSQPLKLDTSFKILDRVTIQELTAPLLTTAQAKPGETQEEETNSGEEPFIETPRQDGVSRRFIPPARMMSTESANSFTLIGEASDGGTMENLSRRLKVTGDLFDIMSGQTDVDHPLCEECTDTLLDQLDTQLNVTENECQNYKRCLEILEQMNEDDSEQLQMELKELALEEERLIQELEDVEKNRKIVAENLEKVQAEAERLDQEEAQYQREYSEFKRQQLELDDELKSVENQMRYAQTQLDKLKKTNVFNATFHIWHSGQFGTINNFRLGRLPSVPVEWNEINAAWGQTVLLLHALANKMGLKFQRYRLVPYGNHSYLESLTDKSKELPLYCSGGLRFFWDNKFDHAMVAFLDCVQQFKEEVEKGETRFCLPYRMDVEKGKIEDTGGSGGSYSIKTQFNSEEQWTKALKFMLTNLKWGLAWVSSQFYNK

effect of a mutation on the interaction	Variant
decreasing interaction	Y315F;Y335F
decreasing interaction	Y288F;Y315F
decreasing interaction	Y288F;Y335F
